In US20240279618A1, “RECEPTOR TYROSINE KINASE AGONIST, COMPOSITION FOR CELL CULTURE MEDIUM, AND […] MAINTENANCE COMPOSITION” (SEKISUI CHEMICAL CO., LTD., priority 2021, published 2024):

What was measured:
FGFR2-Fc = assay: SPR affinity of VHH (monomer) for FGFR2-Fc; format: binding, human; conditions: same manner as Example 5
Description: (§1) The binding activity of VHH Clone #1 or VHH Clone #2 immobilized on Series S Sensor Chip CAP (manufactured by Cytiva) with respect to FGFR1-Fc was measured using Biacore (registered trademark) T200 (manufactured by Cytiva). Measurement was performed by CAP Single-cycle Kinetics. The temperature was set to 25° C. As a running buffer, 10 mM HEPES (pH 7.4) (Cytiva) including HBS-EP+(150 mM NaCl, 0.5 mM EDTA, and 0.05% surfactant P20) was used. The measurement order for each run is as follows.
(§2) 2) Measurement of binding activity: The flow rate was set to 30 μL/mL, and VHH Clone #1 or VHH Clone #2 each diluted to 1.85 nM, 5.56 nM, 16.67 nM, or 50 nM, using a running buffer, was allowed to have an association time set to 120 seconds for binding and a dissociation time set to 600 seconds for interaction.
(§3) 3) Regeneration of sensor chip surface: The flow rate was set to 10 μL/mL, a solution in which Reaneration stock 1 and Regeneration stock 2 (manufactured by Cytiva) were mixed at the ratio of 3:1 was added thereto for 120 seconds to extract the immobilized VHH. Next, analysis was performed with a 1:1 binding model using Biacore T200 Evaluation (software version 2.0, manufactured by Cytiva), and the binding activity was calculated.
(§4) The binding activity of VHH Clone #1 to FGFR2-Fc, FGFR3-Fc, or FGFR4-Fc was measured in the same manner as in Example 5.

FGFR3-Fc = assay: SPR affinity of VHH (monomer) for FGFR3-Fc; format: binding, human; conditions: same manner as Example 5
Description: as §1, §2, §3, §4

FGFR4-Fc = molecular target: T1, FGFR4-Fc (Homo sapiens, UniProt P22455); assay: SPR affinity of VHH (monomer) for FGFR4-Fc; format: binding; conditions: same manner as Example 5
T1 construct: Fc
T1 sequence (P22455 22-369 limits assumed): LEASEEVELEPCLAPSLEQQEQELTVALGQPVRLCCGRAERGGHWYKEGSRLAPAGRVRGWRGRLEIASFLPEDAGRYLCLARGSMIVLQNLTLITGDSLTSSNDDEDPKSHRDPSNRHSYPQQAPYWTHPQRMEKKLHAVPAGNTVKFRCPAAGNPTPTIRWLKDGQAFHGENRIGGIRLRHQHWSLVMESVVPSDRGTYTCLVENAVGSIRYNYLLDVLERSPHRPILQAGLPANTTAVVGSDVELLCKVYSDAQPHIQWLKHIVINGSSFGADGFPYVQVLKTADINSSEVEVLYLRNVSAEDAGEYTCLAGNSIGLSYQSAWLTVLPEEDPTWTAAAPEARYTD
Description: as §1, §2, §3, §4

FGFR1-DIIDIII = assay: Binding activity by biolayer interference (BLI) to FGFR1-DIIDIII; set-up: species or system human; conditions: 1:1 binding model
Description: (§5) The FGFR1 extracellular domain has DII and DIII domains. Each of an FGFR1 extracellular domains (hereinafter may be abbreviated as “FGFR1-DIIDIII”, “FGFR1-DII”, or “FGFR1-DIII”) was expressed using AAVpro293T cells as follows, these domains were purified, and an affinity measurement test with VHH Clone #1 was performed by a biolayer interference (BLI) method.
(§6) The binding activities of FGFR1-DIIDIII, FGFR1-DII, and FGFR1-DIII to VHH Clone #1 were measured by a biolayer interference method (hereinafter sometimes abbreviated as “BLI”). In BLI, using Octet 384 (manufactured by Fortebio), VHH Clone #1 diluted with a kinetics buffer (0.05% Tween20-containing PBS, pH 7.4) was immobilized on an Anti-Penta-HIS (HIS1K, manufactured by Fortebio) sensor chip, and bound to FGFR1-DIIDIII, FGFR1-DII, and FGFR1-DIII, which had been adjusted from 100 nM in 2-fold serial dilutions, and the dissociation rate was measured.
(§7) In the preparation for measurement, a tip of the sensor chip was immersed in 200 μL of the kinetics buffer for 10 minutes in order to hydrate the sensor chip. […]
(§8) After completion of the measurements, the measured value of a Reference (only the kinetics buffer) was subtracted from the actual measurement value, and Global Fitting was performed using a 1:1 binding model using Octet software to calculate the binding activity (FIG. 22).

FGFR1-DII = molecular target: T2, FGFR1-DII (Homo sapiens, UniProt P11362); assay: Binding activity by biolayer interference (BLI) to FGFR1-DII; conditions: Octet, VHH immobilized
T2 construct: The FGFR1 extracellular domain has DII and DIII domains; made in house; host or cells: AAVpro293T cells
T2 sequence (P11362 158-246 limits assumed): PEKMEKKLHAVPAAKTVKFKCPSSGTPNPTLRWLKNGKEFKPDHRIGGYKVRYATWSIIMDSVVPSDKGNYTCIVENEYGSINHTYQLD
Description: as §5, §6, §7, §8

FGFR1-DIII = molecular target: T3, FGFR1-DIII (Homo sapiens, UniProt P11362); assay: Binding activity by biolayer interference (BLI) to FGFR1-DIII; conditions: 1:1 binding model
T3 construct: The FGFR1 extracellular domain has DII and DIII domains; made in house; host or cells: AAVpro293T cells
T3 sequence (P11362 255-357 limits assumed): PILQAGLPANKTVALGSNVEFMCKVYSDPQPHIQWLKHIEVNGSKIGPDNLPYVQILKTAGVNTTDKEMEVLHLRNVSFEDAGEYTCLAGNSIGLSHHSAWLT
Description: as §5, §6, §7, §8

Chain of FGFR1-DIIDIII (P11362 158-357 limits assumed): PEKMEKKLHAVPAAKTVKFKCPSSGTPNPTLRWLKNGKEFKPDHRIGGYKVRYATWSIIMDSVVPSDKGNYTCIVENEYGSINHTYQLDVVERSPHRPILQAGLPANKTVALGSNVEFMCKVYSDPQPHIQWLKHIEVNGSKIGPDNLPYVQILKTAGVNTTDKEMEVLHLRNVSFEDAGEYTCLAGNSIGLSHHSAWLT

kd (FGFR2-Fc): 0.776 s⁻¹
kd (FGFR3-Fc): 0.235 s⁻¹
ka (FGFR4-Fc): 2.37e+06 M⁻¹ s⁻¹
kd (FGFR4-Fc): 0.0527 s⁻¹
Koff (FGFR1-DIIDIII): 0.000141 s⁻¹
Kon (FGFR1-DIIDIII): 289000 M/s
KD (M) (FGFR1-DII): No Binding
Koff (FGFR1-DIII): 0.000351 s⁻¹
Kon (FGFR1-DIII): 298000 M/s
B1: VHH Clone #1: alpaca-derived VHH single-domain antibody (monomer) binding FGFR1, amino acid sequence SEQ ID NO: 17 (protein)
VHH: QLQLVESGGGSVQAGGSLRLSCAASRSLSRFNVWTWYRQAPVKQRELVASITKSGDTNYAESVKGRFIISRDDDKNTVYLQMNNLKSEDTGIYYCAGSYYSGSYLYPSPGGFSVWGQGTQVTVSS
modifications: VHH_Clone_#1
ka (FGFR2-Fc): 484000 M⁻¹ s⁻¹
ka (FGFR3-Fc): 232000 M⁻¹ s⁻¹
